Test results reported in article PMC10496648.

Target: Kv4.2-YFP (mouse) (UniProt Q9Z0V2)
Assay: FRET or BRET

Chain of UniProt Q9Z0V2 (Q9Z0V2 whole entry): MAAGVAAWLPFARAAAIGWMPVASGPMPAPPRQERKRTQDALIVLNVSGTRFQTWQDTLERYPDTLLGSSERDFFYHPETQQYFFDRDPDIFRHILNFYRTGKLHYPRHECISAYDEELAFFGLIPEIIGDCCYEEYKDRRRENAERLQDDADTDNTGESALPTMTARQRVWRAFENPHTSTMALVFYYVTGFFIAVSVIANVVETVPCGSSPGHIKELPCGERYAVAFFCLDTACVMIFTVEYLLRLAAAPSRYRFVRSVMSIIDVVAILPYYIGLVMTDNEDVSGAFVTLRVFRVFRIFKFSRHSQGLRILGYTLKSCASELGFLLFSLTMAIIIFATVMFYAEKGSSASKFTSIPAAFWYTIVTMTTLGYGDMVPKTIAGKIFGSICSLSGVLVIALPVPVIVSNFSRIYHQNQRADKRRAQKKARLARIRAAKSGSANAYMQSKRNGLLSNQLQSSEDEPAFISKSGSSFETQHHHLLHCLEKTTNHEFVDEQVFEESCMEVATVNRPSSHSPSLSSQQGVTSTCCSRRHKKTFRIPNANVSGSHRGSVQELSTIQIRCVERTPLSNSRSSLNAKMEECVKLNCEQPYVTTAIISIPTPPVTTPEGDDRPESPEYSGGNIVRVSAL

KChIP3a-CFP (text) / KChIP2c-CFP (legend, methods) (from UniProt Q9JM59-3 1-220) (natural protein)
FRET efficiency: 11.2%
stoichiometry N: 1
